Laboratory results as given in US5616562A, “Methods and compositions using substance P to promote wound healing” (priority 1994, dated 1997).
Where a SMILES comes first, the peptide text is derived from it. [ ]: non-standard residue; d: D form.

Assays:
[1] = system: persistent non-septic corneal epithelial defects; test: Open-label clinical trial of topical SP in canine patients with chronic non-septic corneal epithelial defects; format: in vivo, dog; conditions: 500 μ/ml SP topical, 8 times daily
Description: This was a non-controlled open-label clinical trial conducted on canine patients seen in a specialty referral service for chronic, non-septic corneal epithelial defects. Criteria for inclusion included:
1. Absence of an identifiable underlying cause of the epithelial defect (lid abnormalities, decreased tear production etc.) on complete ophthalmic examination.
2. Persistence of the defect for at least 3 weeks.
3. Unresponsive to traditional therapy (topical broad spectrum antibiotics,some cases had received topical hyper-osmotic therapy, and 5 dogs had not healed after placement of a therapeutic soft contact bandage lens).
After obtaining informed consent from the owners, the dogs were taken into the hospital, an Elizabethan collar was placed (to keep the dog from rubbing its eye) and two drops of 500 μ/ml SP were instilled into the affected eye. The dogs were closely observed for any irritant effect of the drops. The dogs were then treated with one drop 8 times daily for duration of the trial.

corneal epithelium [2] = test: Corneal re-epithelialization after debridement in rabbits given systemic capsaicin; format: in vivo, rabbit
Description: In order to investigate the effect of SP treatment on corneal epithelial cell growth, capsaicin (50 mg/kg) was injected subcutaneously into young rabbits on five consecutive days in order to deplete, lower, or block the release of SP in their corneas. Lidocain was injected subcutaneously into the injection site 10 minutes prior to the capsaicin injection. Three weeks after the last injection, the rabbits were anesthetized (ketamine/rompun), topical anesthetic applied to the cornea and the corneal epithelium of both eyes debrided to the limbal margin of clear cornea. The corneas were stained 2× daily with fluorescein and photographed using a cobalt filter to monitor re-epithelialization. Resultant photographs were projected onto a digitizing board and the surface area of ulceration determined. […] Clinically, the capsaicin treated rabbits differed from the control rabbits only in their impaired ability to re-epithelialize the denuded stroma.

corneal epithelium [3] = test: Morphological examination of adherence of regenerated corneal epithelium; format: in vivo, rabbit; conditions: after healing of the cornea; masked specimens; systemic capsaicin, or topical enkephalinase in normal rabbits
Description: For both capsaicin-treated rabbits and those treated with topical enkephalinase, regenerated epithelial layers could be easily rubbed off as a sheet of cells after healing of the cornea. This was not found in the control rabbits. Specimens from the various treatment groups were masked and morphologically examined to determine the nature of epithelial adherence. […] Thus, it appears that SP and other neuropeptides contribute to the attachment of epithelial cells during wound healing. Such contribution may take the form of elaboration of extracellular matrices (e.g., fibronectin) as well as development of cellular attachment mechanism, which activity would be in addition to their mitogenic activity in promoting cellular proliferation.

epithelial cells [4] = test: SP analogs and fragment: stimulation of DNA synthesis / cell growth; format: cell-based
Description: Several SP analogs were also tested for their ability to stimulate DNA synthesis. An SP analog where norleucine is substituted for methionine at the C-terminus was tested (Nle-SP). Norleucine is a structural analog of methionine where the sulfur is replaced with a CH2 group.

corneal epithelium [5] = test: Corneal re-epithelialization after debridement in non-capsaicin rabbits treated with topical enkephalinase; format: in vivo, rabbit
Description: To evaluate the effect of SP depletion using another model, the corneal epithelium was removed from non-capsaicin treated rabbits as described above. Enkephalinase (which breaks down SP) was administered 4× daily to one eye of each bilaterally wounded rabbit. The fellow eye received vehicle only 4× daily. […] FIG. 4 underestimates the time course of epithelial healing of both capsaicin treated rabbits and enkephalinase treated corneas for many of these corneas had not re-epithelialized at the termination of the experiments. In 12 rabbits, the enkephalinase treated eye always took longer to heal. In FIG. 5, typical plots for one rabbit (the other 11 rabbits gave essentially the same results) of wound area with time are presented. The solid line represents the enkephalinase-treated eye while the broken line represents the control without enkephalinase. In each case the enkephalinase treated eye and the vehicle treated eye appeared to heal at the same rate for the first 80 to 90 hours. […] The initial healing rate was probably due to migration of pre-existing cells onto the peripheral wound. After 80 to 90 hours synthesis of new cells is required in order to completely cover the wound. […]

epithelial cells [6] = test: Effect of enkephalinase on the ability of SP and insulin to stimulate DNA synthesis; format: cell-based
Description: Substance P (SP) was tested for its ability to stimulate cell growth in epithelial cells from both cornea and lens that were arrested in the G1 /Go phase of the cell cycle in serum free media. […] See, FIG. 1 for corneal and FIG. 2 for lens epithelial cells. To test whether this effect was due to SP, 1 μg/ml of enkephalinase (an enzyme that cleaves SP between amino acid residues 6-7, 7-8, and 9-10) was added.
In the previous experiment, the enkephalinase was added to the cells at the same time as the SP.

Q: Which complications [1] does the source give for `CSCC[C@H](NC(=O)[C@H](CC(C)C)NC(=O)CNC(=O)[C@H](Cc1ccccc1)NC(=O)[C@H](Cc1ccccc1)NC(=O)[C@H](CCC(N)=O)NC(=O)[C@H](CCC(N)=O)NC(=O)[C@@H]1CCCN1C(=O)[C@H](CCCCN)NC(=O)[C@@H]1CCCN1C(=O)[C@@H](N)CCCN=C(N)N)C(N)=O` [SP, Substance P] here?
A: Its complications is “No complications were observed”.

Q: `COc1cc(CNC(=O)CCCC/C=C/C(C)C)ccc1O` [capsaicin] was tested. Which “time to re-epithelialize the denuded cornea” value (corneal epithelium [2]; capsaicin 50 mg/kg subcutaneously on five consecutive days, wounding three weeks later, vs 160 hours in non-capsaicin rabbits (FIG. 4)) did it give?
A: Its value is 460 h.

Q: And the “clinical evidence of impaired lacrimation or other secondary phenomenon” value (corneal epithelium [2]; capsaicin treated rabbits)?
A: The value was “No clinical evidence”.

Q: And the “adherence of regenerated corneal epithelium” value (corneal epithelium [3])?
A: The value was “poorly adhered”.

Q: Which “promotion of cellular growth” value (epithelial cells [4]) does the source give for `CC(C)C[C@H](NC(=O)[C@H](CC(C)C)NC(=O)[C@@H](Cc1c[nH]c2ccccc12)NC(=O)[C@H](Cc1ccccc1)NC(=O)[C@@H](Cc1c[nH]c2ccccc12)NC(=O)[C@H](CCC(N)=O)NC(=O)[C@H](CCC(N)=O)NC(=O)[C@@H]1CCCN1C(=O)[C@H](CCCCN)NC(=O)[C@@H]1CCCN1C(=O)[C@H](N)CCCNC(=N)N)C(N)=O` [spantide] (H-[dR]PKPQQ[dW]F[dW]LL-NH2) here?
A: The value was “stimulate epithelial cell growth”.

Q: How did the “promotion of cellular growth” value (epithelial cells [4]) turn out when “fragment of substance P including only amino acids 5-11: fragment of substance P including only amino acids 5-11 (GlnPhePheGlyLeuMet)” was run?
A: The value was “active”.

B1: enkephalinase: an enzyme that cleaves SP between amino acid residues 6-7, 7-8, and 9-10 (protein, UniProt P08473 2-750, looked up)
Neprilysin: GKSESQMDITDINTPKPKKKQRWTPLEISLSVLVLLLTIIAVTMIALYATYDDGICKSSDCIKSAARLIQNMDATTEPCTDFFKYACGGWLKRNVIPETSSRYGNFDILRDELEVVLKDVLQEPKTEDIVAVQKAKALYRSCINESAIDSRGGEPLLKLLPDIYGWPVATENWEQKYGASWTAEKAIAQLNSKYGKKVLINLFVGTDDKNSVNHVIHIDQPRLGLPSRDYYECTGIYKEACTAYVDFMISVARLIRQEERLPIDENQLALEMNKVMELEKEIANATAKPEDRNDPMLLYNKMTLAQIQNNFSLEINGKPFSWLNFTNEIMSTVNISITNEEDVVVYAPEYLTKLKPILTKYSARDLQNLMSWRFIMDLVSSLSRTYKESRNAFRKALYGTTSETATWRRCANYVNGNMENAVGRLYVEAAFAGESKHVVEDLIAQIREVFIQTLDDLTWMDAETKKRAEEKALAIKERIGYPDDIVSNDNKLNNEYLELNYKEDEYFENIIQNLKFSQSKQLKKLREKVDKDEWISGAAVVNAFYSSGRNQIVFPAGILQPPFFSAQQSNSLNYGGIGMVIGHEITHGFDDNGRNFNKDGDLVDWWTQQSASNFKEQSQCMVYQYGNFSWDLAGGQHLNGINTLGENIADNGGLGQAYRAYQNYIKKNGEEKLLPGLDLNHKQLFFLNFAQVWCGTYRPEYAVNSIKTDVHSPGNFRIIGTLQNSAEFSEAFHCRKNSYMNPEKKCRVW
Q: With B1 as the molecule, how does the “healing rate (wound area with time)” value (corneal epithelium [5]; after the first 80 to 90 hours (FIG. 5)) read?
A: The value was “slow dramatically”.

Q: And the “re-epithelialization compared to fellow eye treated with vehicle” value (corneal epithelium [5]; enkephalinase 4× daily to one eye, 12 rabbits (FIG. 4))?
A: Its value is “markedly impair re-epithelialization”.

Q: What about the “effect of enkephalinase on SP-stimulated DNA synthesis” value (epithelial cells [6]; 1 μg/ml enkephalinase added at the same time as SP (FIG. 3)) of the same molecule?
A: The value was “destroyed all activity of SP by itself”.

Q: And the “effect of enkephalinase on insulin-stimulated DNA synthesis” value (epithelial cells [6]; 1 μg/ml enkephalinase, insulin alone (FIG. 3))?
A: Its value is “did not affect the activity of insulin alone”.

Q: And the “effect of enkephalinase pretreatment on the SP effect” value (epithelial cells [6]; cells pretreated 1 to 3 hours, enkephalinase then removed, especially in the presence of insulin)?
A: Its value is “enhancement of the SP effect”.

Q: What about the “harmful effects on epithelial cells” value (epithelial cells [6]; enkephalinase by itself) of the same molecule?
A: Its value is “no harmful effects”.

Q: And the “adherence of regenerated corneal epithelium” value (corneal epithelium [3])?
A: Its value is “poorly adhered”.
